Results on 8 molecules are retold here after PMC3591319 (PLoS Pathogens, 2013).

Where only a bound is given, the exact number is not on record here.

Experiment [1] has as its target gp140-92UG037 (recombinant Env gp140 of HIV-1 strain 92UG037) (HIV-1 clade A (92UG037)). Put plainly: SPR. On the technique in general: SPR reads the build-up and loss of mass on a sensor chip optically.
Experiment [2] shares this target.
Experiment [3] deals with gp41 528-683 (potential late fusion intermediate conformation of gp41) (HIV-1) (UniProt P04578). Put plainly: SPR; Biacore 3000; […]; 10 mM HEPES, 150 mM NaCl, […]; 1:1 Langmuir fit, […].
Experiment [4] addresses gp41INT (soluble form of the fusion intermediate conformation of gp41) (not stated | HIV-1). Description: SPR; Biacore 3000; gp41INT or gp41 528-683 immobilised to 1000 RU on CM-5; VHH injected 1 to 200 nM for 150 s; 10 mM HEPES, 150 mM NaCl, pH 7.4, 50 uM EDTA, 0.005% P-20; 1:1 Langmuir fit, or separate association and dissociation fits for 2H10 and 2H10-W100A on gp41INT.
Experiment [5] has as its target gp140-92UG037 (recombinant Env gp140 of HIV-1 strain 92UG037) (HIV-1 clade A (92UG037)). Put plainly: SPR; Biacore T100; gp140-92UG037 immobilised to 1500 RU on CM-5; VHH injected at 6.25, 25, 100 and 400 nM for 60 s; 10 mM HEPES, 150 mM NaCl, pH 7.4, 0.005% Tween-20; two-state reaction fit (2H10), heterogeneous ligand and two-state fits (bi-2H10).
Experiment [6] has the same target. Description: SPR; Biacore T100; gp140-92UG037 immobilised on CM-5; single concentration injections of 100 nM VHH for 60 s; two-state reaction fit.
The target in experiment [7] is T1, linear gp41 MPER peptide 655KNEQELLELDKWASL669 (HIV-1 clade B (HXB2 sequence)).
T1 chain: KNEQELLELDKWASL
Description: ITC; 25 C; 10 uM 2H10 in the cell, about 100 uM peptide in the syringe; 20 mM HEPES pH 7.4, 100 mM NaCl; single binding site model. As to conditions: both partners purified.

Experiment [8] has as its target T2, gp41CHRTM (HIV-1 gp41 C-terminal heptad repeat, MPER and transmembrane regions) (HIV-1 clade B (HXB2), UniProt P04578).
T2 construct: also called gp41 proteoliposomes; gp41CHRTM proteoliposomes
Put plainly: ELISA. The following applies: both partners purified. (In general: ELISA stands for enzyme-linked immunosorbent assay.)

In the case of 2H10-W100A (VHH), the Kd in experiment [1] was 10.1 nM.

Consider “bi-2H10 with 17GS linker (bivalent 2H10) (VHH)”, for which the IC50 of neutralisation of HIV-1 92UG037.A9 (molecular clone) in TZM-bl cells in experiment [2] came to 28 µg/mL.

On to “bi-2H10 with 15GS linker (bivalent 2H10) (VHH)”, for which the Kd in experiment [3] amounted to 1.1 nM; in experiment [4], 2.5 nM; in experiment [5], 0.15 nM. In experiment [2], the IC50 of neutralisation of HIV-1 92UG037.A9 (molecular clone) in TZM-bl cells stood at 2.4 µg/mL. Also, the IC50 of neutralisation of pseudovirus 92UG0378 in TZM-bl cells in experiment [2] worked out at 4.66 µg/mL.

For the molecule “2H10 (llama anti-gp41 MPER VHH, monovalent, myc/His-tagged)”, the figures for the Kd in experiment [6], in experiment [4] and in experiment [5] were 8 nM, 29 nM and 4 nM, respectively. Besides, the IC50 of neutralisation of HIV-1 92UG037.A9 (molecular clone) in TZM-bl cells in experiment [2] is above 50 µg/mL. Also, the IC50 of neutralisation of pseudovirus 92UG0378 in TZM-bl cells in experiment [2] is above 50 µg/mL.

Consider 2H10-S29F (VHH), for which the Kd in experiment [1] stood at 5.5 nM.

As for 2H10-R71S (VHH), the Kd in experiment [1] is 18.7 nM.

B1: 2H10 (VHH without 6his-tag or myc tag) (VHH)
VHH: EVQLVESGGGLVQPGGSLRLSCAASGSISSVDVMSWYRQAPGKQRELVAFITDRGRTNYKVSVKGRFTISRDNSKNMVYLQMNSLKPEDTADYLCRAESRTSWSSPSPLDVWGRGTQVTVSS
On to B1, for which binding in experiment [7] was put at a Kd of 35 nM.

B2: 2H10 (llama anti-gp41 MPER VHH, monovalent, myc/His-tagged) (VHH)
VHH: B1 VHH
notes: also called 2H10 monohead; VHH 2H10
B2: in experiment [8], the binding result is given as “binds”.

Broadly, the Kd is the concentration at which binding is half-saturated.
